Experimental data published in article PMC7351741, “Structural basis of seamless excision and specific targeting by piggyBac transposase”.
Values belong to the molecule of their own block, whether it stands above or below them.

Tests used:
[1] = target: piggyBac transposase (PB), full-length, Trichoplusia ni (Trichoplusia ni); test: SEC-MALS; purified PB at 4 and 2 mg/ml, Superdex 200 Increase 10/300, 20 mM HEPES pH 7.5, 100 mM NaCl, 1 mM TCEP; no DNA
[2] = target: T1, piggyBac transposase (PB) (Trichoplusia ni, UniProt Q283G1 1-594); test: cryo-EM; 10 mM Ca2+; Zn2+ in CRD; SNHP: 50 mM Tris-Cl pH 8.0, 100 mM NaCl, 5 mM CaCl2, 1 mM TCEP, mixed 1 h at 25 C; STC: 50 mM Tris-Cl pH 8.0, 500 mM NaCl dialyzed to 200 mM NaCl, 10 mM CaCl2; conditions: protein: recombinant; tags: N-terminal MBP tag removed by TEV; chain copies: 2; four annealed oligos, 2 copies of each; S4 pairs with S5+S6 (break between S5 and S6), 5' CCGG flap on S4; S7 pairs with 3' 11 nt of S6; central target TTAA unpaired in the complex
[3] = target: T1, piggyBac transposase (PB); test: cryo-EM; 5 mM Ca2+; Zn2+ in CRD; SNHP: 50 mM Tris-Cl pH 8.0, 100 mM NaCl, 5 mM CaCl2, 1 mM TCEP, mixed 1 h at 25 C; STC: 50 mM Tris-Cl pH 8.0, 500 mM NaCl dialyzed to 200 mM NaCl, 10 mM CaCl2; conditions: protein: recombinant; tags: N-terminal MBP tag removed by TEV; chain copies: 2; hairpin, 35 bp stem, TTAA loop; 2 copies per PB dimer

T1 sequence (Q283G1 entry or part of it): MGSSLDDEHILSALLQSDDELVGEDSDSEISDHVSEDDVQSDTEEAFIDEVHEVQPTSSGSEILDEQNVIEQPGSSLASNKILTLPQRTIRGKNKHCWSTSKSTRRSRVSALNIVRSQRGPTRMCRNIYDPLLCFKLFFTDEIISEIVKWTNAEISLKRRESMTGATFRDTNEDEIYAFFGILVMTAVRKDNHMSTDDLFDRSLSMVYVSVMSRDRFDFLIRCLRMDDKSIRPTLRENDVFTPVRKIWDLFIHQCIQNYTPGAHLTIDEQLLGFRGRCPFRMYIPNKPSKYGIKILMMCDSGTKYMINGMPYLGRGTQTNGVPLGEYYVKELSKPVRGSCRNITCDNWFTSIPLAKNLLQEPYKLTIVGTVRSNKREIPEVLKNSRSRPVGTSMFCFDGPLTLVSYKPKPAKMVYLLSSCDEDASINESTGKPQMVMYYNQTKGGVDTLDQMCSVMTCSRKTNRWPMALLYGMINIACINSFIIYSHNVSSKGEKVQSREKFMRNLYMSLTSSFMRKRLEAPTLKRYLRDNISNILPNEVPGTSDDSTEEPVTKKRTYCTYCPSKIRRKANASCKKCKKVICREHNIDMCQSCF

- stoichiometry N [1]: 2
Molecule: piggyBac transposase (PB), full-length, Trichoplusia ni (enzyme)

B1: LE STC DNA (mixed)
DNA 1: CCGGCCCTAGAAAGATAGTCTGCGTAAAATTGACGCATGCA
DNA 2: TGCATGCGTCAATTTTACGC
DNA 3: AGACTATCTTTCTAGGGTTAAGACTGTGCCGC
DNA 4: GCGGCACAGTC
- binding result [2]: binds

B2: LE35hrpn (SNHP LE hairpin DNA) (structured_DNA)
DNA: CATGCGTCAATTTTACGCAGACTATCTTTCTAGGGTTAACCCTAGAAAGATAGTCTGCGTAAAATTGACGCATG
- binding result [3]: binds
